Laboratory results as given in paper PMC13408441, “Molecular regulation and physiological role of GOLPH3-mediated Golgi retention” (Nature Communications, 2026).

Key:
[1] = SEC-MALS of GOLPH3 constructs; type: physicochemical, human; settings: 12 mg/mL, 250 mM NaCl, 50 mM Tris pH 8.0, 1 mM TCEP
Description: Supplemental Material for Theodoropoulou, Nasrallah, et al 2026 buffer. Pooled fractions were concentrated to the required concentration using a MWCO concentrator (Millipore) with a cutoff of 10 kDa.
Size exclusion chromatography coupled to multi-angle light scattering
The molecular weights of the tested constructs were determined by size exclusion chromatography coupled to multi-angle light scattering (SEC-MALS). The mass measurements were performed on a UltiMate3000 HPLC system equipped with a 3 angles miniDAWN TREOS static light scattering detector (Wyatt Technology). The sample volumes of 5−10 μl at a concentration of 12 mg/mL, were applied to a Superdex 200 5/150 GL column (Cytiva) previously equilibrated with 250 mM NaCl, 50 mM Tris pH 8.0, 1 mM TCEP at a flow rate of 0.08 mL/min. The data were analyzed using the ASTRA 6.1 software package (Wyatt technology), using the absorbance at 280 nm and the theoretical extinction coefficient for concentration measurements.
Nuclear Magnetic Resonance (NMR) Spectroscopy
All proteins used for NMR experiments were designed on the GOLPH3-4G background due to its higher stability and solubility. Recombinant proteins were prepared with the isotope enrichment scheme appropriate for each experiment (i.e. 15N-only or 15N, 13C) in 20 mM MES buffer pH 6.5 with 250 mM NaCl and 10% 2H2O. Lower salt, even by 10%, yielded much degraded spectra. […]

[2] = CD secondary structure of GOLPH3 proteins (BestSel fits); type: physicochemical, human; settings: 10 μM, 100 mM NaCl, 50 mM Tris pH 7.4, 1 mM TCEP, 20 °C
Description: (§1) Supplemental Material for Theodoropoulou, Nasrallah, et al 2026
Isothermal titration calorimetry […]
(§2) Circular Dichroism Spectroscopy
(§3) Circular Dichroism Spectra of GOLPH3 proteins (at 10 μM in 100 mM NaCl, 50 mM Tris pH 7.4 and 1 mM TCEP) were collected with a Chirascan V100 (AppliedPhotophysics), using a 1 mm path length cuvette, at 20 °C, in the 200-260 nm range. Thermal denaturation experiments […]
(§4) every 1 °C, with a temperature ramp speed of 1 °C/min and an equilibration time of […]
Table S2: Fits of CD spectra to fractions of secondary structure for Golph3 WT and various mutants of it, carried out with the BestSel server

[3] = CD thermal denaturation of GOLPH3 proteins; type: physicochemical, human; settings: CD at 207 nm, 20 to 95 °C at 1 °C/min, 10 μM protein, 100 mM NaCl, 50 mM Tris pH 7.4, 1 mM TCEP
Description: as §1
Isothermal titration calorimetry
Isothermal titration calorimetry (ITC) experiments were performed on a MicroCal PEAQ-ITC (Malvern Panalytical), with GOLPH3 variants being in a buffer containing 250 mM NaCl, 50 mM Tris pH 8.0 and 1 mM TCEP. LCS peptides were synthesised and delivered as lyophilised powder (Genscript). The peptides were dissolved in the protein buffer and their concentrations were calculated based upon their absorbance at 280 nm and their corresponding molar extinction coefficient. Experiments consisted of titrations of a single 0.4 µL injection followed […]
GOLPH3 proteins at a 100 μM concentration. Experiments were performed at 25 °C in triplicate (n = 3), with injection duration of 4 s, injection spacing of 150 s, stir speed of 750 rpm, and reference power of 7 μcal/s. Data were processed and plotted using MicroCal PEAQ‐ITC Analysis Software and fitted to a one‐site binding model.
as §2, §3, §4

GOLPH3 = assay: Click-PEG metabolic labeling of GOLPH3 S-acylation; type: cell-based, human; settings: HeLa, 4 hours
Description: Cells are washed twice with serum-free medium with 1 mg/ml BSA and incubated indicated times with either 100 µM palmitic acid azide or 100uM unlabeled palmitic acid (control). Cells are washed 3 times with cold PBS and lysed in 50 mM Tris-HCl (pH 8.0) and 0.5% SDS. Cell lysates are subjected to click reaction with 5 kDa mPEG-Alkyne, CuSO4, TBTA and ascorbic acid for 1 h at room temperature. Samples are boiled with 4x SDS with BME sample buffer, and analyzed by WB on reducing condition on 4–20% SDS-PAGE gels.

PI4KIIIβ = assay: GOLPH3 Golgi localization upon PtdIns(4)P depletion by PIK93; type: cell-based, human; settings: 1 h
Description: Immunofluorescence and confocal microscopy
HeLa GOLPH3-KO cells transfected with the different GOLPH3 constructs were plated at approximately 50% confluency post-transfection. Cells were washed with PBS, fixed in 4% paraformaldehyde (PFA) for 20 minutes, washed with PBS, quenched with 50 mM NH4Cl for 10 minutes, and washed again with PBS. Cells were permeabilized with 0.05% saponin in PBS for 5 minutes. Subsequently, cells were washed and blocked with 3% BSA and 0.05% saponin in PBS for 30 minutes. Primary antibodies (anti-GOLPH3 and anti-GM130) and secondary antibodies were diluted in the same buffer. After blocking, coverslips were washed and incubated with primary antibodies overnight at 4 °C, washed in PBS, and incubated for 45 minutes with secondary antibodies. Cells were then washed and stained with Hoechst for nuclear visualization. Finally, coverslips were mounted in Prolong Glass Antifade Mountant.
Images were acquired using a Zeiss LSM 980 Inverted microscope with a 63X objective, a pinhole size of 1 AU and at least 2 line-averaging or alternatively using Oympus Evident FV4000. Super-resolution images were taken using Zeiss LSM980 with Airyscan2 module, with 63×oil-immersion objectives. Images were processed using Fiji (ImageJ). Cis-to-trans Golgi linescans were recorded using the “Color Profiler” plugin (Color_Profiler. jar, https://imagej.nih.gov/ij/plugins/color -profiler.html) in Fiji software. […]
Figure S5. GOLPH3 regulation by S-acylation
A. Immunofluorescence analysis of GOLPH3 Golgi localization upon acute PtdIns(4)P depletion.
GOLPH3-KO HeLa cells expressing CERT-GFP (cyan) or GOLPH3 variants (yellow) were treated with increasing concentrations of PIK93 for 1 h. Golgi localization, assessed by colocalization with GM130 (magenta), is highlighted in the insets. Scale bar, 5 µm. […]

GOLPH3 WT: recombinant human GOLPH3 (Q9H4A6, residues 52-298)
oligomeric state [1]: monomeric | % alpha [2]: 41% | % beta parallel [2]: 0% | % beta-antiparallel [2]: 7% | % others [2]: 36% | % turn [2]: 16% | Tm / melting temperature [3]: 52.5 °C

CCCCCCCCCC[C@@H]1C(=O)O[C@H]1CCc1ccc(OC)c(OC)c1 [Palmostatin B]
click-PEG signal upon Palmostatin B (GOLPH3; 50 µM): increased the click-PEG signal

CC(=O)Nc1nc(C)c(-c2ccc(Cl)c(S(=O)(=O)NCCO)c2)s1 [PIK93]
effect of PIK93 on localization of CERT (PI4KIIIβ; CERT-GFP, HeLa): completely relocate CERT to the cytosol | effect of PIK93 on Golgi localization of GOLPH3-C84A (PI4KIIIβ; GOLPH3-KO HeLa expressing C84A): sensitive to PIK93 | effect of PIK93 on Golgi localization of GOLPH3 WT (PI4KIIIβ; GOLPH3-KO HeLa expressing GOLPH3 WT, increasing PIK93 concentrations, versus CERT): significantly more resistant to PtdIns(4)P depletion | effect of PIK93 on Golgi localization of GOLPH3-R90L (PI4KIIIβ; GOLPH3-KO HeLa expressing R90L): insensitive to PIK93 | effect of PIK93 on Golgi localization of GOLPH3 mutated at Cys108 and Cys122 (PI4KIIIβ; GOLPH3-KO HeLa): strongly Golgi-associated, PIK93-insensitive form

COc1ccc(N2CCN(C(=O)c3cc4c(s3)-c3ccccc3S(=O)(=O)C4)CC2)cc1 [ML349]
click-PEG signal upon ML348/ML349 (GOLPH3; 10 µM): increased the click-PEG signal
